Experimental data: US20250002610A1 (Genmab, published 2025)
Positions count from the first letter of the chain named.

B1: BisG1-FAPα-FERL/DR4-FERR (bispecific antibody, human IgG1, kappa, lambda)
heavy 1: EVQLLESGGGLVQPGGSPRLSCEASGFTFSSYALSWVRQAPGKGLEWVSAISGSGGGRYYADSVKGRFTISRDNSKNTLFLQMNSLRAEDTAVYYCAKEGYSSSGTYWDHWGQGTLVTVSSASTKGPSVFPLAPSSKSTSGGTAALGCLVKDYFPEPVTVSWNSGALTSGVHTFPAVLQSSGLYSLSSVVTVPSSSLGTQTYICNVNHKPSNTKVDKRVEPKSCDKTHTCPPCPAPEFERGPSVFLFPPKPKDTLMISRTPEVTCVVVDVSHEDPEVKFNWYVDGVEVHNAKTKPREEQYNSTYRVVSVLTVLHQDWLNGKEYKCKVSNKALPAPIEKTISKAKGQPREPQVYTLPPSREEMTKNQVSLTCLVKGFYPSDIAVEWESNGQPENNYKTTPPVLDSDGSFLLYSKLTVDKSRWQQGNVFSCSVMHEALHNHYTQKSLSLSPG
light 1: AIQMTQSPSSVSASVGDRVTITCRASQGVSSWLAWYQQKPGRAPKLLIYVASTLQSGVPSRFSGSGSGTDFTLTINSLQPEDFATYYCQQANSFPPTFGQGTRLEMKRTVAAPSVFIFPPSDEQLKSGTASVVCLLNNFYPREAKVQWKVDNALQSGNSQESVTEQDSKDSTYSLSSTLTLSKADYEKHKVYACEVTHQGLSSPVTKSFNRGEC
heavy 2: QVQLQESGPGLVKPSGTLSLTCAVSGGSISSYSWWSWIRQPPGKGLEWIGELYHSGSTNYNPSLKSRVTISVDKSKNQFSLKLRSVTAADTAVYYCVRGVATIDYWGQGTLVTVSSASTKGPSVFPLAPSSKSTSGGTAALGCLVKDYFPEPVTVSWNSGALTSGVHTFPAVLQSSGLYSLSSVVTVPSSSLGTQTYICNVNHKPSNTKVDKRVEPKSCDKTHTCPPCPAPEFERGPSVFLFPPKPKDTLMISRTPEVTCVVVDVSHEDPEVKFNWYVDGVEVHNAKTKPREEQYNSTYRVVSVLTVLHQDWLNGKEYKCKVSNKALPAPIEKTISKAKGQPREPQVYTLPPSREEMTKNQVSLTCLVKGFYPSDIAVEWESNGQPENNYKTTPPVLDSDGSFFLYSRLTVDKSRWQQGNVFSCSVMHEALHNHYTQKSLSLSPG
light 2: QSALTQPPSASGSPGQSVTISCTGTSSDVGGYNFVSWYQQDPGKAPKLLIYEVTKRPSGVPDRFSGSKSGNTASLTVSGLQAEDEADYYCSSYAGSNNVMFGGGTKLTVLGQPKAAPSVTLFPPSSEELQANKATLVCLISDFYPGAVTVAWKADSSPVKAGVETTTPSKQSNNKYAASSYLSLTPEQWKSHRSYSCQVTHEGSTVEKTVAPTECS
notes: Human IgG1 bispecific made by controlled Fab-arm exchange of IgG1-FAPα-FERL and IgG1-DR4-FERR; monovalent for FAPα and for DR4; also called GEN1057
B2: BisG1-b12-FERL/DR4-FERR (bispecific antibody, human IgG1, kappa, lambda)
heavy 1: QVQLVQSGAEVKKPGASVKVSCQASGYRFSNFVIHWVRQAPGQRFEWMGWINPYNGNKEFSAKFQDRVTFTADTSANTAYMELRSLRSADTAVYYCARVGPYSWDDSPQDNYYMDVWGKGTTVIVSSASTKGPSVFPLAPSSKSTSGGTAALGCLVKDYFPEPVTVSWNSGALTSGVHTFPAVLQSSGLYSLSSVVTVPSSSLGTQTYICNVNHKPSNTKVDKRVEPKSCDKTHTCPPCPAPEFERGPSVFLFPPKPKDTLMISRTPEVTCVVVDVSHEDPEVKFNWYVDGVEVHNAKTKPREEQYNSTYRVVSVLTVLHQDWLNGKEYKCKVSNKALPAPIEKTISKAKGQPREPQVYTLPPSREEMTKNQVSLTCLVKGFYPSDIAVEWESNGQPENNYKTTPPVLDSDGSFLLYSKLTVDKSRWQQGNVFSCSVMHEALHNHYTQKSLSLSPG
light 1: EIVLTQSPGTLSLSPGERATFSCRSSHSIRSRRVAWYQHKPGQAPRLVIHGVSNRASGISDRFSGSGSGTDFTLTITRVEPEDFALYYCQVYGASSYTFGQGTKLERKRTVAAPSVFIFPPSDEQLKSGTASVVCLLNNFYPREAKVQWKVDNALQSGNSQESVTEQDSKDSTYSLSSTLTLSKADYEKHKVYACEVTHQGLSSPVTKSFNRGEC
heavy 2: B1 heavy 2
light 2: B1 light 2
notes: Fab-arm exchange of IgG1-b12-FERL and IgG1-DR4-FERR; also called bsIgG1-ctrl-FERLxDR4-FERR
B3: BisG1-FAPα-FERL/b12-FERR (bispecific antibody, human IgG1, kappa)
heavy 1: B1 heavy 1
light 1: B1 light 1
heavy 2: B2 heavy 1 with L415F, K419R
light 2: B2 light 1
B4: IgG1-DR4-FERR (antibody, V domains shown)
VH: QVQLQESGPGLVKPSGTLSLTCAVSGGSISSYSWWSWIRQPPGKGLEWIGELYHSGSTNYNPSLKSRVTISVDKSKNQFSLKLRSVTAADTAVYYCVRGVATIDYWGQGTLVTVSS
VL: QSALTQPPSASGSPGQSVTISCTGTSSDVGGYNFVSWYQQDPGKAPKLLIYEVTKRPSGVPDRFSGSKSGNTASLTVSGLQAEDEADYYCSSYAGSNNVMFGGGTKLTVLG
notes: Bivalent monoclonal IgG1 lambda

Legend:
[1] = target: T1, human DR4 (Death Receptor 4), cell surface expressed on human tumor cell lines (human, UniProt O00220 24-468); test: flow cytometry, HCT-15 cells, average ± SEM
T1 construct: also called TNFRSF10A; TRAIL-R1
T1 sequence: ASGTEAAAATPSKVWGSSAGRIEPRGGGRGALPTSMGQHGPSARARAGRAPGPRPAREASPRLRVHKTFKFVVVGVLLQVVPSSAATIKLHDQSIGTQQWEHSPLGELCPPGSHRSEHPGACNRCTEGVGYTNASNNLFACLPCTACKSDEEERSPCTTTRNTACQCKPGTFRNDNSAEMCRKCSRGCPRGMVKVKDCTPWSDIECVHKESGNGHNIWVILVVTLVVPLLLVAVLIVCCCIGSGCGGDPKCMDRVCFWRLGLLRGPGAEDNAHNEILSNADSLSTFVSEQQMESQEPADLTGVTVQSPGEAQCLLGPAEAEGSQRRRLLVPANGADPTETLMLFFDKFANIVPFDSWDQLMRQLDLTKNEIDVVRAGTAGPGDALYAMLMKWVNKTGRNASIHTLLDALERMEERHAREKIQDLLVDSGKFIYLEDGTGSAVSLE

[2] = target: T2, human FAPα (Fibroblast activation protein alpha), cell surface expressed (human, UniProt Q12884 1-760); test: flow cytometry, CAFs, average ± SEM
T2 construct: Endogenous on human lung fibroblasts and CAFs
T2 sequence: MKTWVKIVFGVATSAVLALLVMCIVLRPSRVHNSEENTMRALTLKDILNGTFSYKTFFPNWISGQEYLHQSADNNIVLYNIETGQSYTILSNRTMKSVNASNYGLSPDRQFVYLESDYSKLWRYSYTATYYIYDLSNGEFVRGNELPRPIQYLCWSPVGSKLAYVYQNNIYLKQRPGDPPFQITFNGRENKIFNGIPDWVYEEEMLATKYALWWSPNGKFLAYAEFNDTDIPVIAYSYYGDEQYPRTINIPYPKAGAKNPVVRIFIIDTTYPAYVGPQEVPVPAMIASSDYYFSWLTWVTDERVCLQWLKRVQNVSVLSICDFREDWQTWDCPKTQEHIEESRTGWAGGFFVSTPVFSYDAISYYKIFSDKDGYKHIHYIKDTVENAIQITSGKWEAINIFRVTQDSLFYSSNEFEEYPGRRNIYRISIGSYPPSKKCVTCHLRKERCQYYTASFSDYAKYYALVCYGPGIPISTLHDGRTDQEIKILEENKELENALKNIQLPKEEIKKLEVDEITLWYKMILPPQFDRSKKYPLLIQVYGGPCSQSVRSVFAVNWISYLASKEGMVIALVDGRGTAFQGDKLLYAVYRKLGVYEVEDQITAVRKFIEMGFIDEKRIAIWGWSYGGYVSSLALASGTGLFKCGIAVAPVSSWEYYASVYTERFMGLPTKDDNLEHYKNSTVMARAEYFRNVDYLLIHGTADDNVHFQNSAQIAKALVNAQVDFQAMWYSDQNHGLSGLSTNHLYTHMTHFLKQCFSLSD
Protocol: Binding of bispecific or monoclonal antibodies carrying the anti-FAPα arm derived from IgG1-FAPα-FERL (BisG1-FAPα-FERL/DR4-FERR, BisG1-FAPα-FERL/b12-FERR, and IgG1-FAPα-FERL) to cell surface expressed human FAPα was analyzed by flow cytometry using human lung fibroblasts and CAFs, which endogenously express FAPα. BisG1-b12-FERL/b12-FERR was used as negative control.
Human lung fibroblasts and CAFs (50,000 cells/well) were seeded in 96-Well round bottom plates (Greiner Bio-one, Cat #650101). Antibody dilutions were prepared using fluorescence-activated cell sorting (FACS) buffer, consisting of phosphate buffer saline (PBS, Lonza, Cat #BE17-517Q)+1% Bovine Serum Albumin (BSA, Roche, Cat #10735086001)+0.02% Sodium Azide (Bio-World, Cat #41920044-3). Plates were centrifuged, supernatant was removed, cells were resuspended in 50 μL of human Fc Block (BD, Cat #564220, diluted 1:100 in FACS buffer) and 50 μL of viability stain TO-PRO-3 Iodide (Thermo Fisher, Cat #T3605, diluted 1: 25,000 in FACS buffer), and incubated for 15 min at 4° C. Plates were washed three times with FACS buffer. […] Antibody binding to viable cells (TO-PRO-3 negative) was analyzed by flow cytometry on a FACSCelesta™ (BD biosciences) and data were processed using FlowJo_v10.8.1 (FlowJo LLC). Geomean fluorescence intensity, gMFI, was determined and visualized using GraphPad Prism.

[3] = target: T1, human DR4 (Death Receptor 4), cell …; test: flow cytometry, MDA-MB-231 cells, n = 3

Row | Binder | EC50 [1] | EC50 [2] | EC50 [3]
1 | B1 | 0.65 µg/mL | 0.203 µg/mL | –
2 | B2 | 0.56 µg/mL | – | 0.92 µg/mL
3 | B3 | – | 0.21 µg/mL | –
4 | B4 | – | – | 0.37 µg/mL
